Measurements from article PMC3991606, “Targeting NAD^+ Metabolism in the Human Malaria Parasite Plasmodium falciparum” (PLoS ONE, 2014).

T1: PfNMNAT (Plasmodium falciparum, UniProt Q8IE38)
T1 construct: gene PF3D7_1327600
T1 sequence (Q8IE38 1-204): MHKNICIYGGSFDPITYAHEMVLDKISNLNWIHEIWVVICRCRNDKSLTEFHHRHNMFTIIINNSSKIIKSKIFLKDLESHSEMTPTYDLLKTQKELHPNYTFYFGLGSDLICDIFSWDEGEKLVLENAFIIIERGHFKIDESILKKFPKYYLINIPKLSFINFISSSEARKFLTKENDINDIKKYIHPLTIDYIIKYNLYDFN

B1: PfNMNAT (Plasmodium falciparum 3D7) (protein)
chain: T1 sequence (Q8IE38 1-204)

Key:
PfNMNAT = biological target: T1, PfNMNAT; test: pyrophosphate release assay, […] nm, […] min preincubation with inhibitor; type: biochemical; conditions: 50 µM 1a-a versus 2% DMSO control
purified protein [1] = substrate: Nc1ncnc2c1ncn2[C@@H]1O[C@H](COP(=O)(O)OP(=O)(O)OP(=O)(O)O)[C@@H](O)[C@H]1O; test: purified protein; type: biochemical, Plasmodium falciparum; conditions: 500 µM NaMN, 100 mM HEPES, 10 mM MgCl2, pH 7.5, apparent Km
purified protein [2] = substrate: O=C([O-])c1ccc[n+]([C@@H]2O[C@H](COP(=O)(O)O)[C@@H](O)[C@H]2O)c1; test: purified protein; type: biochemical, Plasmodium falciparum; conditions: 500 µM ATP, 100 mM HEPES, 10 mM MgCl2, pH 7.5, apparent Km

Row | Molecule | inhibition at 50 μM (PfNMNAT) | Km (purified protein [1]) | Km (purified protein [2])
1 | O=C(CCC(=O)Nc1ccc(Br)cc1)N/N=C/c1c2ccccc2cc2ccccc12 [1a-a] | 1a-a exhibits specific activity against purified his-PfNMNAT (Figure 4A) | – | –
2 | B1 | – | 19.9 ± 6.7 µM | 35.8 ± 5.1 µM
